Source: patent US9817004B2, “Development and use of cysteine-labeled fluorescent probes of unbound analytes” (priority 2008, dated 2017)
Numbering of substitutions follows the chain as printed. Names and notes keep the numbering of the source.

Experiments:
[1] = FFAu response-profile screening of probes (FFA specificity); assay type: binding; settings: cysteine labeled with acrylodan at pH 7.0; FFA to which probe has improved specificity
Protocol: In some embodiments, aliquots of the probes prepared as described above are placed in multi-well plates, suitable for fluorescence measurements. Defined amounts of unbound analytes are added to each well and a fluorescence signal from the wells containing probe and analytes are compared to wells containing only the probe. The values obtained are compared with those of a ‘reference’ probe. The analytes may be fatty acids or other unbound metabolites. Preferably, the number of wells in the multiwell plate is between 1 and 1536. […] For many analytes it is important that they be added to each well in complex with a carrier molecule, for example albumin, to buffer the unbound analyte and thereby clamp its concentration to well defined values. Clamping ensures that the concentration of analyte in the aqueous phase in the well is unaffected by binding to the surfaces of the well or the probes themselves. Clamping is essential for discovery of probes because analytes have different solubilities and therefore different affinities for surfaces. Highly insoluble analytes added without proper clamping may bind to the surfaces and be unavailable for binding to the probe. In this example the probe might incorrectly give the appearance of no response to the insoluble analyte. Thus to determine the correct response profile (specificities) for each probe each analyte's concentration must be clamped.
The fluorescence intensity ratio (“R” value) for a given probe is determined. The ratio is calculated using the following formula: R=Fλ1/Fλ2 wherein, Fλ1 is the measured fluorescence intensities (intensity of the probe with the analyte present minus intensity of the analyte without probe present) at wavelength 1 and Fλ2 is the measured fluorescence intensities (intensity of the probe with the analyte present minus intensity of the analyte without probe present) at wavelength 2. Then, for a given probe, ΔR, the difference in R value between the measurement in the presence of each analyte and in the absence of each analyte, is calculated as follows: ΔR=R+analyte−R0 The ΔR value for a given probe is then compared to a reference probe, for example, ADIFAB or ADIFAB2, by ΔR/ΔRreferenee. This value is an indication of how dissimilar the new probe (derived by mutation of the template) is to the reference. By this method, probes with new and useful characteristics may be identified. Measurements of fluorescence intensities are obtained using standard techniques.
More than 40 libraries of cysteine-labeled mutant probes, using templates derived from SEQ ID NO: 5, with the number of different mutant probes in the various libraries ranging from 2000 to 2,000,000 have been generated using the methods described in U.S. Pat. No. 7,601,510, incorporated herein by reference. […]

[2] = Bilirubin binding isotherm of dual fluorophore ratio probes (I608/I525)
Excerpt: FIGS. 7A-7B show Bilirubin binding isotherms for two dual fluorophore bilirubin ratio probes synthesized by labeling with acrylodan and Texas red.
Because such fluorescent proteins may have other valuable characteristics it would be important to be able to convert such fluorescent proteins into probes, i.e. so that they respond to analyte binding by a change in ratio. This can be accomplished by introducing a second but different fluorophore at a different site so that either the fluorescence of the second fluorophore is insensitive or responds differently to analyte binding. In addition, the fluorescence index of second fluorophore should be measured at a distinct wavelength from the first fluorophore. […] To convert this to a fluorescence ratio probe, site specific mutagenesis was used to generate a new mutein (L2P14F7-MGCFD) in which the N-terminal alanine residue of the mature L2P14F7 mutein was replaced with glycine-cysteine. Thus, the N-terminus of the mature L2P14F7-MGCFD mutein has the sequence glycine-cysteine-phenylalanine-aspartate instead of alanine-phenylalanine-aspartate, as in the L2P14F7 template. This substitution is designated in the clone name as “MGCFD” and is sometimes described as an “N-terminal MGCFD linker”. Then L2P14F7-MGCFD was reacted with Texas Red (TR) maleimide at pH 6 under which conditions only the cysteine was labeled. […]

[3] = Fluorescence emission spectra with increasing oleic acid; assay type: binding; settings: acrylodan labeled; 22° C., Ex=386 nm
Protocol: FIGS. 1A-1C show Fluorescence spectra with increasing oleic acid at 22° C. Ex=386 nm.
This is an example of the type of fluorescence response that is a necessary characteristic of a probe. […] This example illustrates that altering specific sites can yield effective probes.

B1: L68P3H10: 18L 23A 27C 31N 33N 55Q 72W 73T 74L 76I 106A 115E 117V 131D (protein, listed as Rattus norvegicus)
chain: AFDGTWKVDRNENYEKFLEKMGANVVCRKLNANDNLKLTITQEGNKFTVKESSNQRNIDVVFELGVDFAYSWTLGIELTGTWTMEGNKLVGKFKRVDNGKELIAVAEISGNELIETVTYEGVEAKRIFKKDRGHHHHHH
modifications: acrylodan label on cysteine; MUTAGEN (131)...(131) rat intestinal fatty acid binding protein with Glu 131 to Asp subsitition.; COOH-terminal affinity tag comprising Arg132, Gly133 and 6 histidines
notes: 18L 23A 27C 31N 33N 55Q 72W 73T 74L 76I 106A 115E 117V 131D
Specificity [1]: DHA

B2: L2P14F7: bilirubin specific fluorescent protein, the M18G,G31M mutation of SEQ ID NO 4, labeled with acrylodan at lysine 27 (protein, listed as Rattus norvegicus)
chain: AFDGTWKVDRNENYEKFGEKMGINVVKRKLMAHDNLKLTITQEGNKFTVKESSNFRNIDVVFELGVDFAYSAADGTELTGTWTMEGNKLVGKFKRVDNGKELIAVREISGNELIQTYTYEGVEAKRIFKKDRGHHHHHH
modifications: acrylodan label at lysine 27; MUTAGEN (72)...(72) rat intestinal fatty acid binding protein with alanine substitution for leucine at position 72 and Glu 131 to Asp subsitition.; COOH-terminal affinity tag comprising Arg132, Gly133 and 6 histidines
analyte specificity ([2]; labeled with acrylodan at lysine 27): bilirubin specific | Kd ([2]; single site equilibrium binding, ratio I608/I525, excited at 375 nm): ~80 nM

B3: L10P7A4-L30C: acrylodan cysteine-labeled rI-FABP mutein; SEQ ID 5 mutations 14L 18L 27A 30C 31Y 72A 73L 117A 131D (protein, listed as Rattus norvegicus)
chain: B2 chain with Y14L, G18L, K27A, L30C, M31Y, A73L, Y117A
modifications: acrylodan label at C30; MUTAGEN (131)...(131) rat intestinal fatty acid binding protein with Glu 131 to Asp subsitition.; COOH-terminal affinity tag comprising Arg132, Gly133 and 6 histidines
Specificity [1]: DHA

B4: L50BP9D5: acrylodan cysteine-labeled rI-FABP mutein; 18L 21F 23L 27C 31N 72S 73T 74A 76I 117N 131D (protein, listed as Rattus norvegicus)
chain: B1 chain with M21F, A23L, N33H, Q55F, W72S, L74A, A106R, E115Q, V117N
modifications: acrylodan label on cysteine; MUTAGEN (131)...(131) rat intestinal fatty acid binding protein with Glu 131 to Asp subsitition.; COOH-terminal affinity tag comprising Arg132, Gly133 and 6 histidines
notes: acrylodan cysteine-labeled rI-FABP mutein; 18L 21F 23L 27C 31N 72S 73T 74A 76I 117N 131D
Specificity [1]: PA/POA

B5: ADIFAB: rat intestinal FABP (SEQ ID NO:2) labeled with acrylodan at lysine 27 (protein, listed as Rattus norvegicus)
chain: AFDGTWKVDRNENYEKFMEKMGINVVKRKLGAHDNLKLTITQEGNKFTVKESSNFRNIDVVFELGVDFAYSLADGTELTGTWTMEGNKLVGKFKRVDNGKELIAVREISGNELIQTYTYEGVEAKRIFKKE
modifications: acrylodan label at K27; PEPTIDE (1)...(131) wild-type rat intestinal fatty acid binding protein; …ON (1)...(1)
fluorescence response upon FFA binding (spectral shift / ratio response) [3]: red shift in its fluorescence emission spectrum upon binding FFA

B6: V26C K27A: SEQ ID NO:2 with lysine 27 mutated to alanine, valine 26 to cysteine, cysteine labeled with acrylodan (protein, listed as Rattus norvegicus)
chain: B5 chain with V26C, K27A
modifications: acrylodan label on cysteine 26; PEPTIDE (1)...(131) wild-type rat intestinal fatty acid binding protein; …ON (1)...(1)
fluorescence response upon FFA binding (spectral shift / ratio response) [3]: yields a ratio response upon FFA binding

B7: K27C: lysine 27 of SEQ ID NO:2 mutated to cysteine and the cysteine labeled with acrylodan (protein, listed as Rattus norvegicus)
chain: B5 chain with K27C
modifications: acrylodan label at C27; PEPTIDE (1)...(131) wild-type rat intestinal fatty acid binding protein; …ON (1)...(1)
fluorescence response upon FFA binding (spectral shift / ratio response) [3]: without the necessary spectral shift to yield a ratio probe

B8: L61P8B12: 8I 14L 18L 23L 27Y 30C 31V 53I 55W 72G 74A 78V 82V 91Y 93M 102V 106W 115W 117L 131D (protein, listed as Rattus norvegicus)
chain: AFDGTWKIDRNENLEKFLEKMGLNVVYRKCVAHDNLKLTITQEGNKFTVKESINWRNIDVVFELGVDFAYSGAAGTEVTGTVTMEGNKLVYKMKRVDNGKEVIAVWEISGNELIWTLTYEGVEAKRIFKKDRGHHHHHH
modifications: acrylodan label on cysteine; MUTAGEN (131)...(131) rat intestinal fatty acid binding protein with Glu 131 to Asp subsitition.; COOH-terminal affinity tag comprising Arg132, Gly133 and 6 histidines
notes: 8I 14L 18L 23L 27Y 30C 31V 53I 55W 72G 74A 78V 82V 91Y 93M 102V 106W 115W 117L 131D
Specificity [1]: POA
